Results: IntAct's records for PubMed 20531392

B1: Peroxisomal biogenesis factor 19 (Homo sapiens), P40855 (parent)
chain: MAAAEEGCSVGAEADRELEELLESALDDFDKAKPSPAPPSTTTAPDASGPQKRSPGDTAKDALFASQEKFFQELFDSELASQATAEFEKAMKELAEEEPHLVEQFQKLSEAAGRVGSDMTSQQEFTSCLKETLSGLAKNATDLQNSSMSEEELTKAMEGLGMDEGDGEGNILPIMQSIMQNLLSKDVLYPSLKEITEKYPEWLQSHRESLPPEQFEKYQEQHSVMCKICEQFEAETPTDSETTQKARFEMVLDLMQQLQDLGHPPKELAGEMPPGLNFDLDALNLSGPPGASGEQCLIM
B2: Peroxisomal biogenesis factor 19 (Homo sapiens), P40855 (parent)
chain: B1 chain
partner: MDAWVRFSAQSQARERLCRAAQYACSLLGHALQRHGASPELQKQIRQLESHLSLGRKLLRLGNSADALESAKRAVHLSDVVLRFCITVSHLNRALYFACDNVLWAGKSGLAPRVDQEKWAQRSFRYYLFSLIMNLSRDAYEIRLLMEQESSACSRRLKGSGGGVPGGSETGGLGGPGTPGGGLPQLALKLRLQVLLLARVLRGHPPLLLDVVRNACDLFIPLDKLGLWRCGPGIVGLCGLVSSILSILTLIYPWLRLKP

Variants of: B1
Conditions: with pex13_human PEX13, Q92968
Chain of pex13_human PEX13, Q92968 (Q92968 whole entry): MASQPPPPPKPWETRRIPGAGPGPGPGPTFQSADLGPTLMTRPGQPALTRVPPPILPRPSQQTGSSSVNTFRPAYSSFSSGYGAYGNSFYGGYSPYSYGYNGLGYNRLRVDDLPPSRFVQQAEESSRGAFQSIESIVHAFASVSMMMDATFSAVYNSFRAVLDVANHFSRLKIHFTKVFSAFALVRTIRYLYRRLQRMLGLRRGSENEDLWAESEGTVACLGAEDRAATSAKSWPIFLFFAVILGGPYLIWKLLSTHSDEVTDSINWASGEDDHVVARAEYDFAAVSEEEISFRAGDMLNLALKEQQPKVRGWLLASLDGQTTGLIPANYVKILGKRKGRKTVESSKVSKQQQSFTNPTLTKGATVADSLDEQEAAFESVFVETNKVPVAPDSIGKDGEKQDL

**Q.** How did the “effect of a mutation on the interaction” value turn out when L182W was run?
**A.** disrupting interaction

Variants of: B1
Conditions: with pex13_human PEX13, Q92968
Remark: another data set of the same source

**Q.** L182P was tested. Which “effect of a mutation on the interaction” value did it give?
**A.** decreasing interaction

Variants of: B1
Conditions: with pex13_human PEX13, Q92968
Remark: another data set of the same source

**Q.** Which “effect of a mutation on the interaction” value does the source give for I178P here?
**A.** disrupting interaction

Variants of: B1
Conditions: with pex13_human PEX13, Q92968
Remark: another data set of the same source

**Q.** For I178W, which “effect of a mutation on the interaction” value is on record?
**A.** decreasing interaction

Variants of: B2
Conditions: with px11b_human PEX11B

**Q.** Which “effect of a mutation on the interaction” value does the source give for L182P here?
**A.** disrupting interaction

Variants of: B2
Conditions: with px11b_human PEX11B
Remark: another data set of the same source

**Q.** With I178W as the variant, how does the “effect of a mutation on the interaction” value read?
**A.** disrupting interaction
